Laboratory results: paper PMC11698656
One block for each substance: values may come before it.

Columns and labels:
[1] = target: ancestral human TRPV6 (R157, V378, T681) (human); assay: cryo-EM structure
[2] = target: derived human TRPV6 (C157, M378, M681) (human); assay: cryo-EM structure

- stoichiometry N [1]: 4 subunits
Substance: ancestral human TRPV6 (R157, V378, T681) (natural protein)

- stoichiometry N [2]: 4
Substance: derived human TRPV6 (C157, M378, M681) (natural protein)

- stoichiometry N (CaM per TRPV6 tetramer) [1]: 1
Substance: endogenous calmodulin (CaM) (from UniProt P0DP23 1-149) (natural protein)
